These results are taken from patent US20230265198A1 (TWIST BIOSCIENCE, published 2023).

Where a chain is given by its changes, count along the chain named.

The target in this assay is T1, neuropilin-1 (NRP1) on HEK293 cells overexpressing NRP1 (UniProt O14786 22-923, limits assumed).
T1 construct: whole, on cells
Put plainly: flow cytometry, HEK293-NRP1 vs HEK293. For orientation: A flow cytometer gives signals particle by particle.

B1: NRP1-16 (VHH)
VHH: EVQLVESGGGLVQPGGSLRLSCAASGRTFSRYVMGWFRQAPGKEREWVATSGTGYGATYADSVKGRFTISADNSKNTAYLQMNSLKPEDTAVYYCARGWLRTGWSIWGQGTLVTVSS
Consider B1, for which the “100 nM FACS (MFI Ratio)” value worked out at 15.9.

B2: NRP1-225 (antibody, IgG2, V domains shown)
VH: EVQLLESGGGLVQPGGSLRLSCAASGFMFSRYAMSWVRQAPGKGLEWVSAISGSGDTTHYADSVKGRFTISRDNSKNTLYLQMNSLRAEDTAVYYCARGGRGLRLQVPIVRHARKGKDYYMDVWGQGTLVTVSS
VL: DIQMTQSPSSLSASVGDRVTITCRASQSIGSHLSWYQQKPGKAPKLLIYRASSLQTGVPSRFSGSGSGTDFTLTISSLQPEDFATYYCLQTYSVPLTFGGGTKVEIK
As to B2, the “100 nM FACS (MFI Ratio)” value came to 1.1.

B3: NRP1-137 (antibody, IgG2, V domains shown)
VH: EVQLLESGGGLVQPGGSLRLSCAASGFTFSRYAMNWVRQAPGKGLEWVSTISSGGGYTYYPDSVKGRFTISRDNSKNTLYLQMNSLRAEDTAVYYCARSYGGGFDYWGQGTLVTVSS
VL: DIQMTQSPSSLSASVGDRVTITCQASQSISSYLAWYQQKPGKAPKLLIYPKHNRPPGVPSRFSGSGSGTDFTLTISSLQPEDFATYYCQQSYKSPLTFGQGTKVEIK
For B3, the “100 nM FACS (MFI Ratio)” value turned out to be 1200.

B4: NRP1-271 (antibody, IgG2, V domains shown)
VH: EVQLLESGGGLVQPGGSLRLSCAASGFTFTTYGMSWVRQAPGKGLEWVSAISGSGGTTYYADSVKGRFTISRDNSKNTLYLQMNSLRAEDTAVYYCARVGPGRSIAARQGFKRRNNWFDPWGQGTLVTVSS
VL: DIQMTQSPSSLSASVGDRVTITCRARQSISTYLNWYQQKPGKAPKLLIYSASTLESGVPSRFSGSGSGTDFTLTISSLQPEDFATYYCQQSYRTPWTFGGGTKVEIK
For the molecule B4, the “100 nM FACS (MFI Ratio)” value was 0.8.

B5: NRP1-238 (antibody, IgG2, V domains shown)
VH: B4 VH with T28S, T30S, T31N, A50S, G53H, T57S
VL: B4 VL with R26S, T31S, Y32Q, S50R, T53R, E55Q, R93S, W96R, T97S
As for B5, the “100 nM FACS (MFI Ratio)” value came out at 0.9.

B6: NRP1-217 (antibody, IgG2, V domains shown)
VH: EVQLLESGGGLVQPGGSLRLSCAASGFTFGRYAMSWVRQAPGKGLEWVSSISGSGGSTYYADSVKGRFTISRDNSKNTLYLQMNSLRAEDTAVYYCARQRIKPNTPRESFFRRAYSYYGMDVWGQGTLVTVSS
VL: B4 VL with A25T, R26S, S28R, Y32S, S50G, T53N, E55Q, V58A, R93F, W96I
With B6, the “100 nM FACS (MFI Ratio)” value turned out to be 2.8.

B7: NRP1-239 (antibody, IgG2, V domains shown)
VH: B4 VH with T28P, T30S, T31N, G33T, S35G, G53A, T57S, T58P, K65N
VL: DIQMTQSPSSLSTSVGDRVTITCRASQNIGSHLNWYQQKPGKAPKLLIYATSSLRSGVPSRFSGSGSGTDFTLTISSLQPEDFATYYCQQSYRIPLTFGGGTKVEIK
On to B7, for which the “100 nM FACS (MFI Ratio)” value amounted to 0.2.

B8: NRP1-232 (antibody, IgG2, V domains shown)
VH: EVQLLESGGGLVQPGGSLRLSCAASGFTFTNYAMNWVRQAPGKGLEWVSSISGSGGRTDYADSVKGRFTISRDNSKNTLYLQMNSLRAEDTAVYYCARLKRGGTNLVRKATRYQFYGMDAWGQGTLVTVSS
VL: B4 VL with R26S, S28N, S30A, T31K, T53N, E55Q, S91N, R93K, W96Y
On to B8, for which the “100 nM FACS (MFI Ratio)” value came to 1.3.

B9: NRP1-229 (antibody, IgG2, V domains shown)
VH: EVQLLESGGGLVQPGGSLRLSCAASGLTFSNFAMSWVRQAPGKGLEWVSAISGRGSSTYYADSVKGRFTISRDNSKNTLYLQMNSLRAEDTAVYYCARVMKMSRRIVGRRHRKGDGMDVWGQGTLVTVSS
VL: B4 VL with R26S, S28A, T31R, Y32S, S50G, T53A, E55Q, S56T, T94P, W96F
As for B9, the “100 nM FACS (MFI Ratio)” value was 1.2.

B10: NRP1-244 (antibody, IgG2, V domains shown)
VH: EVQLLESGGGLVQPGGSLRLSCAASGFTFTSYGMSWVRQAPGKGLEWVSTISGSGGYTYYADSVKGRFTISRDNSKNTLYLQMNSLRAEDAAVYYCALWNRYGGLSYWGQGTLVTVSS
VL: B4 VL with R26S, S30A, N34H, S50G, A51T, T53N, E55Q, W96G
Take B10: the “100 nM FACS (MFI Ratio)” value is 2.1.

B11: NRP1-227 (antibody, IgG2, V domains shown)
VH: B2 VH with M28T, F29L, S30R, R31N, I51L, G53S, D56G, T57S, H59Y
VL: B4 VL with A25P, R26S, I29V, S30T, S50G, A51S, E55Q, R93T, T94F, W96R
B11: the “100 nM FACS (MFI Ratio)” value was determined as 2.6.

B12: NRP1-214 (antibody, IgG2, V domains shown)
VH: B4 VH
VL: B2 VL with I29V, G30S, S31T, H32S, S34N, R50G, S53R, L89Q, V94S, L96R
As to B12, the “100 nM FACS (MFI Ratio)” value was 1.

B13: NRP1-280 (antibody, IgG2, V domains shown)
VH: B4 VH
VL: DIQMTQSPSSLSASVGDRVTITCRASQTISNYVNWYQQKPGKAPKLLIYAASSLHAGVPSRFSGSGSGTDFTLTISSLQPEDFATYYCQQGYSTPLTFGGGTKVEIK
With B13, the “100 nM FACS (MFI Ratio)” value worked out at 0.6.

B14: NRP1-14 (VHH)
VHH: EVQLVESGGGLVQPGGSLRLSCAASGFTFRNFGMGWFRQAPGKEREFVSAISPGGVERYADSVKGRFTISADNSKNTAYLQMNSLKPEDTAVYYCATVGGYDYGYYYGMDVWGQGTLVTVSS
B14: the “100 nM FACS (MFI Ratio)” value was 15.4.

B15: NRP1-211 (antibody, IgG2, V domains shown)
VH: EVQLLESGGGLVQPGGSLRLYCAASGFTFGSYGMSWVRQAPGKGLEWVSSISGSGGSTYYTDSVKGRFTISRDNSKNTLYLQMNSLRAEDTAVYYCVRALAGRRDHWGQGTLVTVSS
VL: B13 VL
As to B15, the “100 nM FACS (MFI Ratio)” value came to 3.8.

B16: NRP1-216 (antibody, IgG2, V domains shown)
VH: EVQLLESGGGLVQPGGSLRLSCAASGFSFRNYAMSWVRQAPGKGLEWVSTVSGSGSSTYYADSVKGRFTISRDNSKNTLYLQMNSLRAEDTAVYYCARGRRGMPAPDTVRKMAKSHLYFDSWGQGTLVTVSS
VL: B13 VL with T28S, V33L, N34S, H55S, A56G, G91T, S93T, L96Y
Turning to B16, the “100 nM FACS (MFI Ratio)” value came to 3.6.

B17: NRP1-219 (antibody, IgG2, V domains shown)
VH: EVQLLESGGGLVQPGGSLRLSCAASGFPFSSYALSWVRQAPGKGLEWVSAITGSGGNTFYADSVKGRFTISRDNSKNTLYLQMNSLRAEDTAVYYCARGGQSGRPRVRGARRLDYYGMDVWGQGTLVTVSS
VL: B13 VL with T28S, N31K, Y32S, V33L, A50G, S53K, H55Q, A56R, T94A
As for B17, the “100 nM FACS (MFI Ratio)” value is 1.2.

B18: NRP1-235 (antibody, IgG2, V domains shown)
VH: EVQLLESGGGLVQPGGSLRLSCAASGFTFPNYAMTWVRQAPGKGLEWVSGISGSGGRIYYADSVKGRFTISRDNSKNTLYLQMNSLGAEDTAVYYCARARKFRELLRRNNYSNHYYMDVWGQGTLVTVSS
VL: B13 VL with A25T, T28S, S30G, V33L, A50G, S53K, H55Q, A56S, L96R
B18: the “100 nM FACS (MFI Ratio)” value is 0.8.

B19: NRP1-228 (antibody, IgG2, V domains shown)
VH: EVQLLESGGGLVQPGGSLRLSCAASGFSFSTHAMTWVRQAPGKGLEWVSTISGLGTGTYYADSVKGRFTISRDNSKNTLYLQMNSLRAEDTAVYYCARSTRGGFDYWGQGTLVTVSS
VL: B4 VL with R26G, S30R, T31S, S50A, E55Q, S56R, S91T, R93T, W96L
For the molecule B19, the “100 nM FACS (MFI Ratio)” value was found to be 3.

B20: NRP1-220 (antibody, IgG2, V domains shown)
VH: EVQLLESGGGLVQPGGSLRLSCAASGFTFRTYDMGWVRQAPGKGLEWVSAVSGSGGTTYYADSVKGRFTISRDNSKNTLYLQMNSLRAEDTAVYYCARETRRVLRRQWRRSYHSYGLDVWGQGTLVTVSS
VL: B4 VL with R26S, T31N, Y32K, S50A, E55Q, S56R, R93K, W96L
As for B20, the “100 nM FACS (MFI Ratio)” value amounted to 2.3.

B21: NRP1-224 (antibody, IgG2, V domains shown)
VH: B4 VH with T30G, T31S, G33A, S35A, A50G, S52T, G53A, T57S
VL: B4 VL with R26S, S28N, S30G, T31R, S50A, E55H, Y92H, R93S, T94N, W96F
For the molecule B21, the “100 nM FACS (MFI Ratio)” value turned out to be 1.

B22: NRP1-273 (antibody, IgG2, V domains shown)
VH: B15 VH
VL: B13 VL with Q27R, T28R, N31T, V33L
Turning to B22, the “100 nM FACS (MFI Ratio)” value amounted to 6.2.

B23: NRP1-223 (antibody, IgG2, V domains shown)
VH: EVQLLESGGGLVQPGGSLRLSCAASGFTFKKYAMSWVRQAPGKGLEWVSTISGSGRSTYYADSVKGRFTISRDNSKNTLYLQMNSLRAEDTAVYYCARDLARGTMPRGVIIPHNWFDPWGQGTLVTVSS
VL: DIQMTQSPSSLSASVGDRVTITCRASQSVRNYLNWYQQKPGKAPKLLIYGASRLHSGVPSRFSGSGSGTDFTLTISSLQPEDFATYYCQQSYSGPYSFGGGTKVEIK
As for B23, the “100 nM FACS (MFI Ratio)” value amounted to 12.8.

B24: NRP1-262 (antibody, IgG2, V domains shown)
VH: B23 VH
VL: B4 VL with A25T, R26S, S30N, S50A, T53G, E55H, S91A, R93G, W96F
As to B24, the “100 nM FACS (MFI Ratio)” value was found to be 6.2.

B25: NRP1-136 (antibody, IgG2, V domains shown)
VH: EVQLLESGGGLVQPGGSLRLSCAASGFTFKDYGMNWVRQAPGKGLEWVSVISGSGGRPNYADSVKGRFTISRDNSKNTLYLQMNSLRAEDTAVYYCARVWRNHLDYWGQGTLVTVSS
VL: DIQMTQSPSSLSASVGDRVTITCSGDRLGEKYVSWYQQKPGKAPKLLIYGKKNRPSGVPSRFSGSGSGTDFTLTISSLQPEDFATYYCQAWASSTVVFGQGTKVEIK
Regarding B25, the “100 nM FACS (MFI Ratio)” value worked out at 128.
